This data set can be described thus: soluble on expression in E. coli; label from the status in PepcDB or PDB records.
For the sequence “MAHHHHHHMGRNNKMRSKPSDNVAWYDKGPVEWLPRPVRLTYDQLDQLRDWMMRETIAGRTEEFNKIRHLHREWSQHPLMPVLGDVEPKFPLNLYKQNHRAKRRFLVRWHKANSPTYWMWMPRGPAVATPLHRSSPSQFPEHWKSLARTSSSSSSSGSSSAAP”, the “soluble on expression in E. coli” value is reported as “soluble”.
With “MSLAQIVNTERHSRLLPAPSSFEEGVVKFGDKEINIGGPLPTLAKDEKLVRVTHSLCPACYRLLPATIFEKEGKLFIRKICPEHGEFEDLYYADSSLYYKFDYWEYEGKGPKVPYVDLKSPCPYNCGLCPMHHQHSALVNLVITNRCDLSCWYCFFYAEKAGYVYEPTLEQIKFMVDQLKKQDITLVIQVTGGEPTLREDIIEIIKMLRENGVKHIQLNSWGGTFAKLYLEDPDKAIKYARALREAGVNTVYMSFDGTTRKTNPKNHWEIPYTLEVFRRAGMTSVVLVPTVIKTVNDNDLGNIVKFAAYNMDVVRSVNFQPVSLTGMMKRNMRAKFRITIPEVIKNIEEQTDGEITKDSWYPIGTSVVFSRLVEALTGKEQFEMANHPSCGAGTYVYVEWRNHEPHFIPISKFIDLEGLLEYLKEKEEELREGANKVWVASKVLYSIRKFIDKEQGPKDFDVYKMLYNIIIHHNYEALGEWHYRTLFLGSMHFMDLYNYDVQRVMRCDIHYVVPDGRVIPFCTYNVLNDLYRDKVLREYQIPLDKWTKEHGENSLGDAIKYKRIASTLENSEIYKNTYKSFQQMEGHHHHHH”, the “soluble on expression in E. coli” value is given as “not soluble”.
In the case of “SAEEKVKDEAMQIMGMFQILPRLVVFDLDYTLWPFYCECRSKREMPSMYPQAKGILSALKEKGIEMAIASRSPTSDIANTFLDKLNIKPMFVAKEIYSSWSHKTEHFQKIHTRTGVPFTAMLFFDDEDRNIKSVSKMGVTSILVGDGVTLGAFRQGLTEFTQNHNSIEKNKQVWRDKYSGKPTSSETDKD”, the “soluble on expression in E. coli” value is “soluble”.
Consider “MGSDKIHHHHHHMTAGGLHNGSGGMESARHCRELVERWLADGSFDARLPEVVRLRGVLQPEQYHAEGDAWTHTMLAMEAVPDDADPRVFWGVLLHDIGKAETTAFIKGRWRSWGHAEAGAGEVSAIMTRLGFPHLAADVTWLVKHHTFHFSWNLTPGARLSPKQRRFMEHPLFPLLLEVCDADAAGSRGGSDKGVKIGQLADMYADVTKGWADS”, for which the “soluble on expression in E. coli” value is “not soluble”.
“MGSDKIHHHHHHMIRKHFKGYNFVCIPETGVTFRWGDSIAEDPYMAPWPELADISISNYCTNGCEYCYRASNEEGIFMTVADYKFILGQLTSKEYGSIFQVALGGGEPLLHPDFNEILHVTREEYGIIPNYTTCGKYFNQKNMEASKKYCGAVAVSWDPYRDNLSLEELRELGVQLKEEKIRTNIHYVISERTLIEAIKLLKGKYDEYLKDFNSVIFLTYKAAGRADKSDVIKSQKYLREFLDMVDAPLTKLKLGFDACFVPVLMKATGVDTDLVDSCECGFFSVYVSESMEVMPCSFCNNSNFTYNLKDLCFKDIWQKHFSAYRSYVNDNCKTGCAECDERSGCRGKCSFYNDIYLCNLV”: the “soluble on expression in E. coli” value was “not soluble”.
For the sequence “MGSDKIHHHHHHMSLQISLVNNISQIGSQAWHALFGSEHPFTRYEYLLALESSGACSAQTGWQPRHLIVIEKAAVTENPHSAAAKTDNILALMPLYEKHHSYGEYVFDWAWAEAYERHGLAYYPKLLCAVPFTPVTGTRLAMDSRLDVGQQDAVWTAVVDFLQQQIMTQGYSSWHYLFTNATQSAVLAQAHLTPPSQSQSNQAQRNQTQALQPQANSQASAIKGQPIARLGTQFHWFNRGYRQFDDFLQVMTSRKRKNIQKERAAISKFELSFEFIHGDNITSSQWRSFSLCYQQTYLKRSGHTGYLNSEFFQAIGTSMADAIRLLRVSDKAGKDIAYALYFASDSRLYGRYWGAFEDIPGLHFEACYYQGIEYAIAQGLSCFDAGAQGEHKVLRGFEPIETHSFHAIAHEGFKGAIEDFCQQERRNMQIYMAEQAKNLPYKNSQ”, the “soluble on expression in E. coli” value is listed as “not soluble”.
Regarding “MKNLILVLGCFFFLISCQQTEKEKLEELVKNWNGKEVLFPTNPSFTLYGKTPVDFKIPVSDYKIVTYVDSLGCSSCKLQLPKWKEFMKYADSIVGYQIPVLFFLHPANVREMRSVLKQNRFDYPVCMDTEDTFNKVNKFPSQLNFQTFLLDKNNHVIAIGNPVHNYDVRELYIHLISGGIDGDSLSNMRTVIKIEEDMVDLGSFDWRREQHITFEIHNIGNNNLVVYDNKTSCGCTSVEYSKEPVQPGKSLAVKVTYKADHPEHFNKTIILYCNASASPLELKITGNAK”, the “soluble on expression in E. coli” value was “not soluble”.
Consider “MREINMILYIHIPFCENKCGYCAFNSYENKHGLKEEYTQALCLDLKHALSQTDEPIESVFIGGGTPNTLSVKAFERIFESIYQHASLSLDCEITTEANPELITKAWCQGLKGLGINRLSLGVQSFREDKLLFLERQHSKNIAPAIETILKSGIENISIDLIYNTPLDNENSLKEELKLAKELPINHLSAYALSVEKNTNLEKNAKKPSCAHFDNVVREILEGFSFKQYEVSNYARNYQVKHNLAYWGAKDYLGCGAGAVGCVANERFFAKKLIENYIKDPLQRQVETLNKQDKRLEKLFLGLRCVLGVELSFLDENKVKFLIEENKAFIKNNRLIASDFFMADEMALWLLLEHHHHHH”, for which the “soluble on expression in E. coli” value was “not soluble”.
For “GPGSMSSLTEGARASHTSSKEAGYYRLQSPKHINIDPCVYEIRTMRGSGPGGQGTNSSSNKVELRADMELLSEFFDEELLAALRRHEAGGALTNDGTTIVVSCHEHRSALQNKEGCLRKLQTLLHKASWVPPAEAGLVERPSFIVTEQKVRRRKKSNMNRMTRSARSGSW” the value was “soluble”.
Turning to “ALSPPRRKSFKKWTPPRSPFNLVQEILFHDPWKLLIATIFLNRTSGKMAIPVLWEFLEKYPSAEVARAADWRDVSELLKPLGLYDLRAKTIIKFSDEYLTKQWRYPIELHGIGKYGNDSYRIFCVNEWKQVHPEDHKLNKYHDWLWENHEKLSLS”, the “soluble on expression in E. coli” value is listed as “soluble”.
The result for “MGSDKIHHHHHHMRKITLRSKLDGREIVFEENQNLFDIAREYQKYYRYKILAARVNNRIIELFRTPDRSGELEFLDLTDPDGLRIYQRGLVFLASLAVRKLNSEWRLKVLHSLGKGIYCEIYKGNELIVPDQNQVFAIKDKMRELVEKDLPIEKRTFYKDEAREILMKEGLVKTVNLFKYRKKRTVKLYHCDGFWAYFYGYLPPSTGRIDVFDVQPYNQGLVLVHPDPKTRELPVIHMPKLSQVFLEYARWLNVLELEYVSDLNDIIARGERHVADLMLLSEALHEKKISDIADEIAKDKRKRLILIAGPSSSGKTTFAKRLSLQLRVNGLKPVAISLDDYFVDREKTPRDENGNYDFDSIEALDIELFNRNLQDLLAGKEVVLPKFNFKTGKRMRGPTLKLEKDNIIIVEGIHGLNERLTASIPKEQKFKIYVSALTQLNIDDHNRVTTTDTRLIRRIVRDYKFRGHTAYDTLKMWPNVRKGEERNIFPFQEEADVMFNSALVYEIPVLRIFAEPLLVQVPEDVPEYSEALRLLKLLDFFLPITNIEDIPDKSILREFIGRSIFKY” reads “not soluble”.
The result for “MSLGDKPLQTVLHDEHYGGLDFSLGDSKYSGELEYNKSYMVNFSVNLPAEGSVKVAKAYVYWVWSKKDLEGIYPQFNASIINSETTAPLPKGHMYTDTKGFVSRYDYFSGMNTYDLSGKISKSGNYSISLVNTDKNGSTFCVQGIGLLLVYEDPKSPAIEYWINEGCDMLYADYGITPEVATTTTYFKGDIDPDNVTDARLITVSPSGGYSSGREARNKLFFNEETRSIPVLGDIVQLLFGSGKVWENVYQTNETVQIALDEKPVADYLEPTENFASIQDNGDYLLATNAILVLKFKGPESSETKGSEGHHHHHH” reads “soluble”; that for “MNHLTNQYVMLHDEKRCIGCQACTVACKVLNDVPEGFSRVQVQIRAPEQASNALTHFQFVRVSCQHCENAPCVSVCPTGASYRDENGIVQVDKSRCIGCDYCVAACPFHVRYLNPQTGVADKCNFCADTRLAAGQSPACVSVCPTDALKFGRLDESEIQRWVGQKEVYRQQEARSGAVSLYRRKEVHQEGKA”, “not soluble”; that for “MSLVEKPVVIKFGGTSVRYAFEEALELVAKLHENMKIIVVVSALAGVTDCLLRLAKGDKSALLEIDEIHEELSQELNVQLEHLIHQLKKTINSKSSFPSEKAFIDEIASFGERFSAKLFSEGLKILGITARPVDSKDVLFVKGEFGNAEVEFKKSAQGVDVLYRMLRRGIVPVVTGYYGNLNGFRATFGRGGSDYSATSIASLVNAKAVLIMSDVEGIYTADPKLVPPARLIHYISYKEAKTAAKLGMKVLHPRAIDPVEGKIPVILGKTRDLKFGTLISHESQGIPIVTHKLLENHAEISVVSVKTNIPLPYEVYEEGDLYFKIKTSKDQFLEVLRDVHRRVVENENLHSSHDGELWTWVEGHHHHHH”, “soluble”.
With “MDVEKLNLDNIISRLLEVRGSKPGKNVQLTESEIKGLCQKSREIFLSQPILLELEAPLKICGDVHGQYYDLLRLFEYGGFPPESNYLFLGDYVDRGKQSLETICLLLAYKIKYPENFFLLRGNHECASINRIYGFYDECKRRYNIKLWKTFTDCFNCLPVAAIIDEKIFCCHGGLSPDLQSMEQIRRIMRPTDVPDQGLLCDLLWSDPDKDVTGWGENDRGVSFTFGPEVVAKFLHKHDLDLICRAHQVVEDGYEFFAKRQLVTLFSAPNYCGEFDNAGSMMTVDETLMCSFQILKPADKKKYPYGAGGVGSNRPVTPPRNAPAAQPKKGAKK”, the “soluble on expression in E. coli” value is given as “not soluble”.
For “MNGAAQADLWRLVVLNTYGGVYMDIDATLVWPLDKLLGDSQELYIRIKNNTEITNYFIATAPNNPDLQATIEQVVYNVNHYEPSMGVYHSTGPTVLNNILSAKAVIHTQDRKYVCIQGTFTNEHFQYIDKPRGKWLEHHHHHH” the value was “not soluble”; for “MAHHHHHHMGTLEAQTQGPGSMLNKVMLIGYLGDDPESKTMTSGAEVVNFRMATFESYMNKNTHQKVEKTEWHSVVVFNPHFAKIALQYLHKGSKVYIEGKLQTRKWQDKNGHDRYTTEIVLPQYKGELHLLDAKKEQSASSSSVTSQSYAIASGADDYGISAHDSMPF”, “soluble”.
For “MKVLTVFGTRPEAIKMAPLVHALAKDPFFEAKVCVTAQHREMLDQVLKLFSIVPDYDLNIMQPGQGLTEITCRILEGLKPILAEFKPDVVLVHGDTTTTLATSLAAFYQRIPVGHVEAGLRTGDLYSPWPEEANRTLTGHLAMYHFSPTETSRQNLLRENVADSRIFITGNTVIDALLWVRDQVMSSDKLRSELAANYPFIDPDKKMILVTGHRRESFGRGFEEICHALADIATTHQDIQIVYPVHLNPNVREPVNRILGHVKNVILIDPQEYLPFVWLMNHAWLILTDSGGIQEEAPSLGKPVLVMRDTTERPEAVTAGTVRLVGTDKQRIVEEVTRLLKDENEYQAMSRAHNPYGDGQACSRILEALKNNRISLGSHHHHHH” the value was “soluble”; for “MACQTGIRANAALRNALNLGKQAKLRLIKIVVNNEEMTPNYEFAGTANWRDDWRACLPDCVDAYEPCFILFRLNTITEWVLITFVDDRAPVREKMLLAATCATFKSEFGQCYIEHEKHVTDLKDLTLNAFEAWLKAKTELGPMSEVERELHNAQQERAAIAHAGPQHMKGVAFPVDRNAEEALRQLASQKLSFVQLSVDTLNEAIKLEGTLESLEPSQLASKVPRDKPRYTFYNFDHTWEGVPQQCTLFIYSLPSSGSSIKERMLYSSCKGPFLSAAQNQYGVVITNKMEVDARDDLSEKALLEVIHPLPVEAPKQFSRPAPPRAGPRRITKV”, “not soluble”; for “MAHHHHHHMTVARDHDIDDHDTSFTSFGGERPPFERIPVPSMASKEYTENLPAFDSDRPMPPPRSVFERFSRVMQLQFGQDPDMPLLGSRAERKYRSWLDYVTSPPSPLLPRNYVDAYTRPNPCPEEYWWASWRWPRIKYVNAKVPPPVDGKYNDYYHYLAYKNWMERERDVYVAHANLVNEMAMRCLVKEGQYNAAKNCRHLYHKGFAMSRMEELNQTLLYMALTGNAAIRETPYPENFVEEKRKIYDDWLFRTRMKKPGDVA”, “not soluble”.

Values taken from the DeepSol protein solubility set.
